# From the nanobody polyreactivity screen of Harvey et al. (2022)
# Experiment: yeast display, Sf9 membrane polyspecificity reagent, FACS + sequencing; frameworks hold sequencing errors
# Method in brief: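 A nanobody's polyreactivity label depends on the gate it was sorted from. Yeast display cells were stained with 10% biotinylated, detergent-solubilized Sf9 membrane reagent for 1 hour at 4 °C, enriched on streptavidin microbeads and sorted by FACS. The low and high (top ~1%) gates were set on anti-HA fluorescence for expression and streptavidin fluorescence for reagent binding.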
row,Sequence,polyreactivity (PSR sort gate)
1,QVQLVESGGGLVQAGGSLRLSCAASGIIFSFYAMGWYRKAPGKERELVAAISQSGGSTYYADSVKGRFTISRDNAKNTVYLQMNSLKPEDTAVYYCAVAGWYGSEYWGQGTQVTVSS,high polyreactivity
2,QVQLVESGGGLVQAGGSLRLSCAASGIIFSFYAMGWYRQAPGKERELVAAISRSGGSTYYADSVKGRFTISRDNAKNTVYLQMNSLKPEDTAVYYCNADNGASYYYRRYDSWGQGTQVTVSS,high polyreactivity
3,QVQLVESGGGLVQAGGSLRLSCAASGIIFSGYARGWSRQAPGKERELVAVISSSGGGTYYADSVKGRFTISRDNAKNTVYLHMNSLKPEDTAVYYCAARGREAIHGYWGQGTQVTVSS,high polyreactivity
4,QVQLVESGGGLVQAGGSLRLSCAASGIIFSRYAMGWYRQAPGKERELVAAISSSGGTTYYADSVKGRFTISRDNAKNTVYLQMNSLKPEDTAVYYCYAPAFYKYKSFYAHSGYDYWGQGTQVTVSS,high polyreactivity
5,QVQLVESGGGLVQAGGSLRLSCAASGIIFSSNAMGWYRQAPGKERELVAAISRRGGSTSYADSVKGRFTISRDNAKNTVYLQINSLKPEDTAVYYCAARYVYPGEDYWGQGTQVTVSS,high polyreactivity
6,QVQLVESGGGLVQAGGSLRLSCAASGIIFSSNAMGWYRQAPGKERELVAAITRRGGSTRYADSVKGRFTISRDNAKNTVYLQMNSLKPEDTAVYYCNALTGYPYRWGISYPMDYWGQGTQVTVSS,high polyreactivity
7,QVQLVESGGGLVQAGGSLRLSCAASGIIFSSSAMGWYRQAPGKEREVVAAITSCGNTNYADSVKGRFTISRDNAKNTVYLQMNSLNPEDTAVYYCNAETSFVWLAWHPYGFGDWGQGTQVTVSS,low polyreactivity
8,QVQLVESGGGLVQAGGSLRLSCAASGIIFSTNAMGWYRQAPGKERELVAAISWDGSSTYYADSVKGRFTISRDNAKNTVYLQMNSLKPEDTAVYYCAADQSTVLDVGSWGQGTQVTVSS,low polyreactivity
9,QVQLVESGGGLVQAGGSLRLSCAASGIIFSWYAMGWYRQAPGKERELVASITASGGSTYYADSVKGRFTISRDTAKNTVSFQMHSLKPEDTAVYYCAVRYGHRSFASVYVEYDYWGQGTQVTVSS,low polyreactivity
10,QVQLVESGGGLVQAGGSLRLSCAASGIIFSYNVMGWYRQAPGKEREFVADITWNGGSTYYADSVKGRFTISRDNAKNTVYLQMNSLKPEDTAVYYCATGWPWYSNYASAYDYWGQGTQVTVSS,low polyreactivity
11,QVQLVESGGGLVQAGGSLRLSCAASGIIFSYYARGWYRQAPGKDRELVAAISSSGVSTNYADSVKGRFTISRDNAKNTVYLQMTSLKPEDTAVYYCAADYGSWSNWGYEYWGQGTQVTVSS,high polyreactivity
12,QVQLVESGGGLVQAGGSLRLSCAASGIIFTDNAMGWSRQAPGKERELVAAISCRGGSTYYADSVKGRFTISRDNAKNTVYLQMNSLKPEDTAVYYCARYGTDHRLGYGYWGQGTQVTVSS,low polyreactivity
13,QVQLVESGGGLVQAGGSLRLSCAASGIIFTDTAMGGYTQPPGKVRELVATISWSTDNTYYADSVKGRFTISRDNAKNTVYLQMNSLKPEDTAVYYCAAEEFYAYWYQSDYWGQGTQVTVSS,low polyreactivity
14,QVQLVESGGGLVQAGGSLRLSCAASGIIFTGNAMGWYIQAPGKERELVAAITSGDTTNYADSVKGRFTISRDNAKNTVYLQMNSLKPEDSAVYYCAKELQVRQAGDYWGQGTQVTVSS,low polyreactivity
15,QVQLVESGGGLVQAGGSLRLSCAASGIIFTGYAMGWYRQAPGKERELVAAISGSGGRTYYSDSVKGRFTISRDNAKNTVYLQMNSLKPEDTAVYYCAAYRVSDYDYWGQGTQVTVSS,high polyreactivity
16,QVQLVESGGGLVQAGGSLRLSCAASGIIFTNYAMGWYRQAPGKERELVAAISSSSGTTYYADSVKGRFTISRDNAKNTDYLQMNSLKPEDTALYYCNAGRSWRRTHYDYWVQGTQVTVSS,high polyreactivity
17,QVQLVESGGGLVQAGGSLRLSCAASGIIFTNYGMGWYRQAPGKERELGAVISRRGGSTYYADSVKGRFTISRDNAKNTVYLQMNSLKPEDTAVYYCNTRTQGAKQYTGYDYWGQGTQVTVSS,high polyreactivity
18,QVQLVESGGGLVQAGGSLRLSCAASGIIFTNYSMGWYRQAPGKERELVAAISKGAGRTYYADSVKGRFTISRDNAKNTVYLQMNSLKPEDTAVYYCNKAKRSGGYPGVFSYDYWGQGTQVTVSS,high polyreactivity
19,QVQLVESGGGLVQAGGSLRLSCAASGIIFTSYAMGWYRQAPGKEREFVAGISVRGSSTYYADSVKGRFTISRDNAKNTVYLQMNSLKAEDTAVYYCAARTPSRYLYYEYDYWGQGTQVTVSS,low polyreactivity
20,QVQLVESGGGLVQAGGSLRLSCAASGIIFTTNAMGWYRQAPGKERELVATISTGGGTYYADSVKGRFTSSRDNAKNTVYLQMHSLKPEDTAVYYCAATPGWGPWIFDHSYVDFDYWGQGTQVTVSS,low polyreactivity

row,Sequence,polyreactivity (PSR sort gate)
1,QVQLVESGGGLVQAGGSLRLSCAASGIIFVAYAMGWYRPAPGKERELVAAITKSGVRTYYADSVKGRFTISRGNAKNTVYLQMNSLKPEDTAVYYCAADRGVGVYYWGQGTQATVSS,high polyreactivity
2,QVQLVESGGGLVQAGGSLRLSCAASGIIFVEYAMGWYRQAPGKERELVARIRYSGGSTYYADSVKGRFTISRDNAKNTVYLQMNSLKPEDTAVYYCNALFPYIYDYWGQGTQVTVSS,low polyreactivity
3,QVQLVESGGGLVQAGGSLRLSCAASGIIFVLYDMGWYRPAPGKERELVAAIDKSGGSTYYADSVKGRFTISRDNAKNTVYLQMNSLKPEDTAVYYCNARVVWRNPSYLKSSYDYWGQGTQVTVSS,low polyreactivity
4,QVQLVESGGGLVQAGGSLRLSCAASGIIFVRNAMGWYRQAPGKERELVAAISRSGGSTYYADSVKGRFTISRDNAKNTVYLQMNSLKPEDTAVYYCAAVMRLSSGYDYWGQGTQVTVSS,high polyreactivity
5,QVQLVESGGGLVQAGGSLRLSCAASGIIFVRNVMGWYRQAPGKERELVAAITNGGSTYYADSVKGRFTISRDNAKNTVYLQMNSLQPEDTAVYYCAALTGVRRRYYYWGQGTQVTVSS,high polyreactivity
6,QVQLVESGGGLVQAGGSLRLSCAASGIIFVRYTMGWYRQAPGKERELVAAISSSGGSTYYADSVKGRFTISRDNAKNTVYLQMNSLKPEDTAVYYCNAEIRDNNVGYYTDYDYWGQGTQVTVSS,high polyreactivity
7,QVQLVESGGGLVQAGGSLRLSCAASGIIFVSYAMGWYRQAPGKERELVAAITRRGSRTYYADSVKGRFTISRDNAKNTVYLQMNSLKPEDTAVYYCAADSQAARYHAYDYWGQGTQVTVSS,high polyreactivity
8,QVQLVESGGGLVQAGGSLRLSCAASGIIFVSYAMGWYRQAPGKERELVADITSGGRTYYADSVKGRFTISRDNAKNTVYLQMNSLKPEDTAGYYCAATYSYKGRWVWVYYWGQGTQVTVSS,high polyreactivity
9,QVQLVESGGGLVQAGGSLRLSCAASGIIFVVNDMGWYRQAPGKERELVADISDSGGSTNYADSVKGRFTISRDNAKNTVYLQMNSLKPEDTAVYYCNADGITSLPVPALDYWGQGTQVTVSS,low polyreactivity
10,QVQLVESGGGLVQAGGSLRLSCAASGIIFVWNAMGWYRQAPGKERALVAAITNGGSTYYADSVKGRFTISRDNAKTTVYLQMTSLKPEETAVDYCHVRYFFRFRDDYWGQGTQVTVSS,low polyreactivity
11,QVQLVESGGGLVQAGGSLRLSCAASGIIFVYYVMGWYRQAPGKERELVASIDGSGGSTNYADSVKGRFTISRDNAKNTVYLQMNSLKPEDTAVYYCNADNILYWSTLDYLGQGTQVTVSS,low polyreactivity
12,QVQLVESGGGLVQAGGSLRLSCAASGIIFWDNAMGWYRQAPGKERELVASINYSGGSTYYADSVKGRFTISRDNAKNTVYLQMNSLKPEDTAVYYCAARTVTLDDWDYAYDYWGQGTQVTVSS,low polyreactivity
13,QVQLVESGGGLVQAGGSLRLSCAASGIIFWDYAMGWSRQAPGKEREIVAAINTSGGTTTYADSVKGRFTISRDNAKNTVYLKMNSLKPEDTAVYYCAADTWGYYSYAYYYWGQGTQVTVSS,low polyreactivity
14,QVQLVESGGGLVQAGGSLRLSCAASGIIFWFYAMGWYRQAPGKERELVAVISWNGDSTYYADSVKGRFTISRDNAKNTVYLQMNSLKPEDTEVYYCSAETYLGVYGSEYDYWGQGTQVTVSS,low polyreactivity
15,QVQLVESGGGLVQAGGSLRLSCAASGIIFWLYTMGWYRQAPGKERELVAAITSGGSTYYADSVKGRFTISRDNAKNTVYLQMNSLKPEDTAVYDCAAVPRYRRWKYDYWGQGTQVTVSS,high polyreactivity
16,QVQLVESGGGLVQAGGSLRLSCAASGIIFWQYAMGWYRQAPGKERELVAAISRSGGNTYYADSVKGRFTISRDNAKNTVYLQMNSLKPEDTAVYYCNARRYLRGYGYGYWGQGTQVTVSS,high polyreactivity
17,QVQLVESGGGLVQAGGSLRLSCAASGIIFWYYAMGWYRQAPGKERELVAAISSGGSTTYADSVKGRFTISRDNAKNTVYLQMKSLKPEDTAVYYCAAVWLSLFKGWVDTHEYDYWGQGTQVTVSS,low polyreactivity
18,QVQLVESGGGLVQAGGSLRLSCAASGIIFYDNAMGWYRQAPGKERALVAALTWTGSSTYYADSVKGRFTISRDNAKNTVYLQMNSLKPEDTAVSYCNARASYGHQGRLGYARLYYWGQGTQVTVSS,high polyreactivity
19,QVQLVESGGGLVQAGGSLRLSCAASGIIFYDNAMGWYRQAPGKERELVATINYSGDSTYYADSVKGRFTISRDNAKNTVYLQMNSLKPADTAVYYCATDGAWQYYWVYSHEYWGQGTQVTVSS,low polyreactivity
20,QVQLVESGGGLVQAGGSLRLSCAASGIIFYGNAMGWYRQAPGKERELVAAISWSGSSTYYADSVKGRFTISRDNAKNTVYLQMNSLKPEDTAVYYCAADIPYQFVRDVYYWGQGTQVTLSS,high polyreactivity
